Experimental data published in PMC2191747 (The Journal of Experimental Medicine, 1994).

T1: human CD58 R44A (human, UniProt P19256 29-250, R44A)
T1 sequence (looked up): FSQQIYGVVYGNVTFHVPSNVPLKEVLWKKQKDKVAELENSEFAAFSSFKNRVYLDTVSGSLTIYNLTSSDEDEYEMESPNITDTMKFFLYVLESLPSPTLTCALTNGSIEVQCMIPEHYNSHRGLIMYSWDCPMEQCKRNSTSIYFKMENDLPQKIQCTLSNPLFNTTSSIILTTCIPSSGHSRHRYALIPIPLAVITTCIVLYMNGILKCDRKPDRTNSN

T2: human CD58 K30A (human, UniProt P19256 29-250, K30A)
T2 sequence (looked up): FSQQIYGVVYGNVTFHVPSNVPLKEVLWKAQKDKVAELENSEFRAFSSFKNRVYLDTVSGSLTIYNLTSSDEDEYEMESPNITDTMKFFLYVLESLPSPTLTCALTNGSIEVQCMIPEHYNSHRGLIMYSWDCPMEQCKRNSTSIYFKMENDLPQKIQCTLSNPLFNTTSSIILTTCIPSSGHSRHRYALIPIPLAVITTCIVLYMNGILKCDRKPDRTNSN

T3: human CD58 D33A (human, UniProt P19256 29-250, D33A)
T3 sequence (looked up): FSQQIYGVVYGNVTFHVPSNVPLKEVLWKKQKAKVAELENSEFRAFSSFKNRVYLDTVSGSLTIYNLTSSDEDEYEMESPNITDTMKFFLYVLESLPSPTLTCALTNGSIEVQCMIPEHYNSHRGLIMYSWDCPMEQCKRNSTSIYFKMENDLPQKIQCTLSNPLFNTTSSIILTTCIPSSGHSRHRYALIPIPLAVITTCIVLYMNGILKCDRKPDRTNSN

T4: human CD58 K87A (human, UniProt P19256 29-250, K87A)
T4 sequence (looked up): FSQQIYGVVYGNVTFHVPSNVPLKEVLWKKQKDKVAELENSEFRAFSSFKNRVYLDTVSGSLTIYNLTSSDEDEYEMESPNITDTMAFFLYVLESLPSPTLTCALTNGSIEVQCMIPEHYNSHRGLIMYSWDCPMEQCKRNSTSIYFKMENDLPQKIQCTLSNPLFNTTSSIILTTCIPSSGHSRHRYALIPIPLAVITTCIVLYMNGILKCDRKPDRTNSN

T5: human CD58 E25A (human, UniProt P19256 29-250, E25A)
T5 sequence (looked up): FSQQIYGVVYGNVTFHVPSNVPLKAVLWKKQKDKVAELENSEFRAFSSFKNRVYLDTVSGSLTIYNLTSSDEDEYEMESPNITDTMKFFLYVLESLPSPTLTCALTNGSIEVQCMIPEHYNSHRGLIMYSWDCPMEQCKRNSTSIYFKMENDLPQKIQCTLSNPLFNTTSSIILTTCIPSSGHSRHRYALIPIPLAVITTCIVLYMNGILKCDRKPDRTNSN

T6: human CD58 E76A (human, UniProt P19256 29-250, E76A)
T6 sequence (looked up): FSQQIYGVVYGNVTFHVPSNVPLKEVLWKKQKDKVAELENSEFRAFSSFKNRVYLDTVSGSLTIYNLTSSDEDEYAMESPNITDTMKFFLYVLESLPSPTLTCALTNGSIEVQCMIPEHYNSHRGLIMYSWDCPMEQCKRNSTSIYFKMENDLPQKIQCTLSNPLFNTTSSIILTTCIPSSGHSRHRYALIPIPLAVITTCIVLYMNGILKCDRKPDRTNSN

T7: human CD58 E37A (human, UniProt P19256 29-250, E37A)
T7 sequence (looked up): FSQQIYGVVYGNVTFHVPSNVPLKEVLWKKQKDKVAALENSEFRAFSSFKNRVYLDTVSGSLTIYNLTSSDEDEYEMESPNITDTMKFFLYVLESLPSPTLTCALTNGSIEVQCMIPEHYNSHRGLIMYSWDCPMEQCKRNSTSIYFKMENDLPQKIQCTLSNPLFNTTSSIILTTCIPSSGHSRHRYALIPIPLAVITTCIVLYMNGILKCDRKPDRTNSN


Columns and labels:
Experiment in all cases: cell-cell adhesion assay
[1] = biological target: human CD58 K34A (human) (UniProt P19256)
[2] = biological target: T1, human CD58 R44A
[3] = biological target: T2, human CD58 K30A
[4] = biological target: T3, human CD58 D33A
[5] = biological target: T4, human CD58 K87A
[6] = biological target: T5, human CD58 E25A
[7] = biological target: T6, human CD58 E76A
[8] = biological target: T7, human CD58 E37A

Row | % binding relative to wtCD58 [1] | % binding relative to wtCD58 [2] | % binding relative to wtCD58 [3] | % binding relative to wtCD58 [4] | % binding relative to wtCD58 [5] | % binding relative to wtCD58 [6] | % binding relative to wtCD58 [7] | % binding relative to wtCD58 [8] | Molecule
1 | 1% | – | – | – | – | – | – | – | human CD2 (from UniProt P06729 25-351) (receptor)
2 | – | 79% | 64% | 26% | < 30% | 68% | 107% | < 30% | human CD2 (receptor, human (endogenous in Jurkat), UniProt P06729 25-351, looked up) KEITNALETWGALGQDINLDIPSFQMSDDIDDIKWEKTSDKKKIAQFRKEKETFKEKDTYKLFKNGTLKIKHLKTDDQDIYKVSIYDTKGKNVLEKIFDLKIQERVSKPKISWTCINTTLTCEVMNGTDPELNLYQDGKHLKLSQRVITHKWTTSLSAKFKCTAGNKVSKESSVEPVSCPEKGLDIYLIIGICGGGSLLMVFVALLVFYITKRKKQRSRRNDEELETRAHRVATEERGRKPHQIPASTPQNPATSQHPPPPPGHRSQAPSHRPPPPGHRVQHQPQKRPPAPSGTQVHQQKGPPLPRPRVQPKPPHGAAENSLSPSSN
